Assay results from patent EP1562972B1.

How the values were obtained:
[1] = molecular target: human neonatal Fc receptor (FcRn), recombinant GPI-linked, on NS0 cells (human) (UniProt P55899); test: competition flow cytometry, NS0 cells with human FcRn, vs biotinylated OST577-IgG1, FBB pH 6.0
[2] = molecular target: rhesus neonatal Fc receptor (FcRn), recombinant GPI-linked, on NS0 cells (rhesus) (UniProt H9Z6D2); test: competition flow cytometry, NS0 cells with rhesus FcRn, vs biotinylated OST577-IgG1, FBB pH 6.0
[3] = molecular target: human neonatal Fc receptor (FcRn), recombinant GPI-linked, on NS0 cells (human) (UniProt P55899); test: competition flow cytometry, NS0 cells with human FcRn, vs biotinylated HuEP5C7-IgG2M3, FSB pH 6.0
[4] = molecular target: human neonatal Fc receptor (FcRn), recombinant GPI-linked, on NS0 cells (human) (UniProt P55899); test: competition flow cytometry, NS0 cells with human FcRn, vs biotinylated HuEP5C7-IgG2M3, FBB pH 6.0
[5] = molecular target: rhesus neonatal Fc receptor (FcRn), recombinant GPI-linked, on NS0 cells (rhesus) (UniProt H9Z6D2); test: competition flow cytometry, NS0 cells with rhesus FcRn, vs biotinylated OST577-IgG2M3, FBB pH 6.0
[6] = molecular target: human neonatal Fc receptor (FcRn), recombinant GPI-linked, on NS0 cells (human) (UniProt P55899); test: competition flow cytometry, NS0 cells with human FcRn, vs biotinylated OST577-IgG2M3, FBB pH 6.0

Sequence of human neonatal Fc receptor (FcRn), recombinant GPI-linked, on NS0 cells (human) (P55899 24-297, chain 1 of 2): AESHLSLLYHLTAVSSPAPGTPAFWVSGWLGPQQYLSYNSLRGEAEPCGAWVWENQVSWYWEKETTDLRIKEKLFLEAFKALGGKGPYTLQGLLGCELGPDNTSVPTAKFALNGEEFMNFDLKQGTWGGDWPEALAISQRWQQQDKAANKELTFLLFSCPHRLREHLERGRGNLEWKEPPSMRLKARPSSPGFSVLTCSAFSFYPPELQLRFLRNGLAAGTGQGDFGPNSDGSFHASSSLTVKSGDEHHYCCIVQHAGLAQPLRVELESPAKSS
Sequence of human neonatal Fc receptor (FcRn), recombinant GPI-linked, on NS0 cells (human) (P61769 21-119, chain 2 of 2, further chain): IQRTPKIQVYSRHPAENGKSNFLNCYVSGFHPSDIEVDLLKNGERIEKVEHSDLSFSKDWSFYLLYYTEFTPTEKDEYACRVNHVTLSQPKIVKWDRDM

With OST577-IgG1 M428F mutant (antibody) the IC50 [1] was 3.44 µg/mL and the Relative Binding (ratio (IC50 wild-type / IC50 mutant)) [1] was 4.
In the case of OST577-IgG1 M428L mutant (antibody), the IC50 [1] was 0.896 µg/mL, the IC50 [2] was 0.629 µg/mL and the Relative Binding (ratio (IC50 wild-type / IC50 mutant)) [2] was 14.
“OST577-IgG1 T250Q/M428L double mutant (antibody)” was tested, and the IC50 [1] was 0.351 µg/mL, the Relative Binding (ratio (IC50 wild-type / IC50 mutant)) [1] was 29 and the IC50 [2] was 0.236 µg/mL. For the same substance, the Relative Binding (ratio (IC50 wild-type / IC50 mutant)) [2] was 37.
Substance OST577-IgG2M3 L314A mutant (antibody) has an IC50 [3] of 68.7 µg/mL and a Relative Binding (ratio (IC50 wild-type / IC50 mutant)) [3] of 0.16.
OST577-IgG2M3 L314Q mutant (antibody) showed an IC50 [3] of 32 µg/mL and a Relative Binding (ratio (IC50 wild-type / IC50 mutant)) [3] of 0.33.
For OST577-IgG2M3 L314R mutant (antibody), the IC50 [3] was 102 µg/mL.
OST577-IgG2M3 L314W mutant (antibody) showed an IC50 [3] of 20.2 µg/mL and a Relative Binding (ratio (IC50 wild-type / IC50 mutant)) [3] of 0.53.
OST577-IgG2M3 M428F mutant (antibody) was tested, and the IC50 [3] was 3.4 µg/mL and the IC50 [4] was 2.97 µg/mL.
In the case of OST577-IgG2M3 M428L mutant (antibody), the IC50 [5] was 1.92 µg/mL, the Relative Binding (ratio (IC50 wild-type / IC50 mutant)) [5] was 7.7 and the IC50 [6] was 1.79 µg/mL. For the same substance, the Relative Binding (ratio (IC50 wild-type / IC50 mutant)) [6] was 6.7.
“OST577-IgG2M3 T250Q/M428L double mutant (antibody)” showed an IC50 [5] of 0.554 µg/mL, a Relative Binding (ratio (IC50 wild-type / IC50 mutant)) [5] of 27 and an IC50 [6] of 0.43 µg/mL.
